Experimental data published in patent US20200085917A1.

Tests used:
Experiment in all cases: GST pull-down, LC-MS/MS
[1] = molecular target: T1, Hmgcl_IPI:IPI00127625.1 (mouse) (UniProt P38060)
T1 sequence (looked up): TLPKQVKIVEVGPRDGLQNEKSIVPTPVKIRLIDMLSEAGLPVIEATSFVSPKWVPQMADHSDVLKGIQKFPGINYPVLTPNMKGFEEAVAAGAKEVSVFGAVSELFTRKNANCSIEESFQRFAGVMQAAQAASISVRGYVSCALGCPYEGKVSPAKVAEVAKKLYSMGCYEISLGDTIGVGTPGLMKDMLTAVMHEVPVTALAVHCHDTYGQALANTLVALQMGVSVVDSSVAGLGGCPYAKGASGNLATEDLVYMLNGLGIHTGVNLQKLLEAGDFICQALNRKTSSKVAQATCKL

[2] = molecular target: Slc25a1_IPI:IPI00276926.3 (mouse) (UniProt Q8JZU2)
Chain of Slc25a1_IPI:IPI00276926.3 (mouse) (Q8JZU2 14-311 limits assumed): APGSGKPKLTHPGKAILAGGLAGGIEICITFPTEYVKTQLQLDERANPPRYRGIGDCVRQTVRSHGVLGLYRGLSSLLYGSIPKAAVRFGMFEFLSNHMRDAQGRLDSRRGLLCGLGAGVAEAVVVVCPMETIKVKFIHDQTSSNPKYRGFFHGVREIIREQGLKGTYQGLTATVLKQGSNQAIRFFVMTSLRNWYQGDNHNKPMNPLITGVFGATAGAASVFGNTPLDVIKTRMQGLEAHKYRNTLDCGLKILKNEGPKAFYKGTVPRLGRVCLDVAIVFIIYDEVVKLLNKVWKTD

[3] = molecular target: T2, Pfn2_IPI:IPI00227805.6 (mouse) (UniProt Q9JJV2)
T2 sequence (looked up): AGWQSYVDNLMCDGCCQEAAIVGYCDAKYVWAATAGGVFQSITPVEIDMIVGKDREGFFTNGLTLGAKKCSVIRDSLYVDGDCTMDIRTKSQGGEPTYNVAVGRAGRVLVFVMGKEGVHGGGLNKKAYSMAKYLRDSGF

[4] = molecular target: T3, Acsl6_IPI:IPI00123390.8 (mouse) (UniProt Q91WC3)
T3 sequence (looked up): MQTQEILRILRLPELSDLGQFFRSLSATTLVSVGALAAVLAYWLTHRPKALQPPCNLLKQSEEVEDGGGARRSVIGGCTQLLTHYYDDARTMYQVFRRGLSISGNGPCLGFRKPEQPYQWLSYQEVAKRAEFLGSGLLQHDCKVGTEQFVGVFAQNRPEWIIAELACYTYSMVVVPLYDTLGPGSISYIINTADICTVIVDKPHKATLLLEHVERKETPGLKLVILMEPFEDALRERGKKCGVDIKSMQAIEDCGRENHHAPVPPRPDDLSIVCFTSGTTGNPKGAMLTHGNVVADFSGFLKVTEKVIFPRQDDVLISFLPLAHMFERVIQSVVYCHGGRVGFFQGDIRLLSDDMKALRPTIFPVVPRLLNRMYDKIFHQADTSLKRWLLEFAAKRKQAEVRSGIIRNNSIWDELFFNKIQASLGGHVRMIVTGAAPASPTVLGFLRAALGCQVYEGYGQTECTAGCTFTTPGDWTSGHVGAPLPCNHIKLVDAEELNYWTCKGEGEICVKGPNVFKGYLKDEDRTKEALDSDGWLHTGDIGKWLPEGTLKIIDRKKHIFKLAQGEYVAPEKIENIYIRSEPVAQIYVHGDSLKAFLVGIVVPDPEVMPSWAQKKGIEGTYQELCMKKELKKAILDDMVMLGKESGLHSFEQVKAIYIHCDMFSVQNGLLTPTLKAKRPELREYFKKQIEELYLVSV

[5] = molecular target: Atp1a3_IPI:IPI00122048.2 (mouse) (UniProt Q6PIC6)
[6] = molecular target: mt-Co2_IPI:IPI00131176.1 (mouse) (UniProt P00405)
Chain of mt-Co2_IPI:IPI00131176.1 (mouse) (P00405 whole entry): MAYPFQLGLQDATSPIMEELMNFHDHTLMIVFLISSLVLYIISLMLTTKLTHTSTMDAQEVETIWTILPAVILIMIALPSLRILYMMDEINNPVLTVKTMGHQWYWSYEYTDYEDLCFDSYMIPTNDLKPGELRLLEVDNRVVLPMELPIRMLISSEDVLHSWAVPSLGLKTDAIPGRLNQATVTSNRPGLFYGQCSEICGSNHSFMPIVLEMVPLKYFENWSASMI

[7] = molecular target: Tuba4a_IPI:IPI00117350.1 (mouse) (UniProt P68368)
Chain of Tuba4a_IPI:IPI00117350.1 (mouse) (P68368 whole entry): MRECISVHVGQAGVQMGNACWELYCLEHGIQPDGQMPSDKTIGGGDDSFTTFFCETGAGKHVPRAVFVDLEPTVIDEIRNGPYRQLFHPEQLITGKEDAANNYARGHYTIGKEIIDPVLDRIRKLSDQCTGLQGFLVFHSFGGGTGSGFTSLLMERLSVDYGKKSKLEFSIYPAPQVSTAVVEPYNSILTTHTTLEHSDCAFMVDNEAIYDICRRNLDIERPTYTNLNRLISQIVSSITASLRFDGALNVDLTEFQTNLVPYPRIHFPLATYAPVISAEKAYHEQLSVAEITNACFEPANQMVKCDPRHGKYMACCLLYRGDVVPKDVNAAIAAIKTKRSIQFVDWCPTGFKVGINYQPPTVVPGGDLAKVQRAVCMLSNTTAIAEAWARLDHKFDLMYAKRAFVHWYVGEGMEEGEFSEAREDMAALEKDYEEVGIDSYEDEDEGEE

[8] = molecular target: Cend1_IPI:IPI00122826.1 (mouse) (UniProt Q9JKC6)
Chain of Cend1_IPI:IPI00122826.1 (mouse) (Q9JKC6 whole entry): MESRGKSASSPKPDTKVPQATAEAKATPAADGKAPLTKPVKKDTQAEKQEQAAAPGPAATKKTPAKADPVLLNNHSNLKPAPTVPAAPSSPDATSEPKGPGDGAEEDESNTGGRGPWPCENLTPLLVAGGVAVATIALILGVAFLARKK

[9] = molecular target: T4, Ccdc127_IPI:IPI00131843.3 (mouse) (UniProt Q3TC33)
T4 sequence (looked up): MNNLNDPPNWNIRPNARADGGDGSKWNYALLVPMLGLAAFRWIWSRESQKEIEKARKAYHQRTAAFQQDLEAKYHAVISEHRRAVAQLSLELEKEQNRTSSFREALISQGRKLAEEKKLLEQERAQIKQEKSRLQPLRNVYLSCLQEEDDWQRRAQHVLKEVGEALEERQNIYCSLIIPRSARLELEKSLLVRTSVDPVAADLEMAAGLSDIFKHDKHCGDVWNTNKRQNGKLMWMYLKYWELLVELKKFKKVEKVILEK

[10] = molecular target: Timm17b_IPI:IPI00129504.1 (mouse) (UniProt Q9Z0V7)
Chain of Timm17b_IPI:IPI00129504.1 (mouse) (Q9Z0V7 whole entry): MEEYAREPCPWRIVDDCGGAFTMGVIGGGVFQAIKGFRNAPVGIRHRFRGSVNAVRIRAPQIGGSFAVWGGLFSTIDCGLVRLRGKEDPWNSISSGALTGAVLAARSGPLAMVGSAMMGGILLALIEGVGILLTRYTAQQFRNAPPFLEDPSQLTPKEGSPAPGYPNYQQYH

[11] = molecular target: T5, C1qbp_IPI:IPI00132799.4 (mouse) (UniProt O35658)
T5 sequence (looked up): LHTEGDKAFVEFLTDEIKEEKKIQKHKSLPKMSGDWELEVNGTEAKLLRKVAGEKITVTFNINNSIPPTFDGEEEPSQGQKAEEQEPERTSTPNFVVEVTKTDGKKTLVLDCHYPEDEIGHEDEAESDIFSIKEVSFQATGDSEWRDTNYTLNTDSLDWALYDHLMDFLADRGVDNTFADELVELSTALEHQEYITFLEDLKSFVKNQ

[12] = molecular target: T6, Syngr3_IPI:IPI00331579.1 (mouse) (UniProt Q8R191)
T6 sequence (looked up): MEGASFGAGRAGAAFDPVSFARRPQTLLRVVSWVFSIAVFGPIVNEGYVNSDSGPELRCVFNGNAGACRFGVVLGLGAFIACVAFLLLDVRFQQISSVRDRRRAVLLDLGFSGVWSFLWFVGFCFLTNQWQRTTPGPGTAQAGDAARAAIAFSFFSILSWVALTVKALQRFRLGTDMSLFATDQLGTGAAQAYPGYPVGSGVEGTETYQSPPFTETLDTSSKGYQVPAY

[13] = molecular target: Loh12cr1_IPI:IPI00457620.2 (mouse)
[14] = molecular target: Ndufb5_IPI:IPI00132531.1 (mouse) (UniProt Q9CQH3)
Chain of Ndufb5_IPI:IPI00132531.1 (mouse) (Q9CQH3 47-189 limits assumed): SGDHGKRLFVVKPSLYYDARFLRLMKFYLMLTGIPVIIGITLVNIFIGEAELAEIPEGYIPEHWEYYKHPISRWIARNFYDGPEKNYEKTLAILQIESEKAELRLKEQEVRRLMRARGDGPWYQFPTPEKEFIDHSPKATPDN

Chain of GST-Httex1-23Q (P08515 1-218, tags or fused parts left off): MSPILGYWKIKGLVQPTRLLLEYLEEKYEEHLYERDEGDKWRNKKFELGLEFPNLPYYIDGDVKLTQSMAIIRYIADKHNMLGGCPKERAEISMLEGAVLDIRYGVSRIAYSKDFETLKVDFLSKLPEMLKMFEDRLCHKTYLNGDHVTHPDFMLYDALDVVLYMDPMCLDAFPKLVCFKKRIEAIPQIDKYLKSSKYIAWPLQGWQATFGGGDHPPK

GST-Httex1-23Q (from UniProt P08515 1-218; P42858 1-88)
2 peptides: No. of total peptides [4] | No. of unique peptides [4] | No. of total peptides [5] | No. of unique peptides [5] | No. of total peptides [9] | No. of unique peptides [9]
3 peptides: No. of total peptides [7] | No. of unique peptides [7] | No. of total peptides [8] | No. of unique peptides [8] | No. of total peptides [10] | No. of unique peptides [10] | No. of unique peptides [11]
1 peptides: No. of total peptides [1] | No. of unique peptides [1] | No. of total peptides [2] | No. of unique peptides [2] | No. of total peptides [3] | No. of unique peptides [3] | No. of total peptides [6] | No. of unique peptides [6] | No. of total peptides [12] | No. of unique peptides [12] | No. of total peptides [13] | No. of unique peptides [13] | No. of total peptides [14] | No. of unique peptides [14]
6 peptides: No. of total peptides [11]

GST-Httex1-97Q (from UniProt P08515 1-218; P42858 1-88)
3 peptides: No. of total peptides [5] | No. of unique peptides [5] | No. of unique peptides [6] | No. of total peptides [11]
2 peptides: No. of total peptides [2] | No. of unique peptides [2] | No. of total peptides [3] | No. of unique peptides [3] | No. of total peptides [4] | No. of unique peptides [4] | No. of total peptides [7] | No. of unique peptides [7] | No. of unique peptides [11] | No. of total peptides [12] | No. of unique peptides [12]
5 peptides: No. of total peptides [8] | No. of total peptides [9] | No. of unique peptides [9]
4 peptides: No. of total peptides [6] | No. of unique peptides [8]
1 peptides: No. of total peptides [1] | No. of unique peptides [1] | No. of total peptides [10] | No. of unique peptides [10] | No. of total peptides [13] | No. of unique peptides [13] | No. of total peptides [14] | No. of unique peptides [14]
